Test results: publication PMC8809517, “Cofactor-independent RNA editing by a synthetic S-type PPR protein”

T1: GFP-9S library array, motif 4 ND N98A;D124P (synthetic construct, N98A;D124P)
T1 chain: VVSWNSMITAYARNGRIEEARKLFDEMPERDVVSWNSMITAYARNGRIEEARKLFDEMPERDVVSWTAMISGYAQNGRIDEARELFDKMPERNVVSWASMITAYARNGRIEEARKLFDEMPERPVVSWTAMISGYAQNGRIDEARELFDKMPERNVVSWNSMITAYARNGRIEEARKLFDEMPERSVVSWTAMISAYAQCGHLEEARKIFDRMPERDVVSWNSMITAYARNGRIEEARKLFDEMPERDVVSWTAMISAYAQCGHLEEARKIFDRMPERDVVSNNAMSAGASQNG

T2: GFP-9S library array, motif 4 ND N98Q;D124R (synthetic construct, N98Q;D124R)
T2 chain: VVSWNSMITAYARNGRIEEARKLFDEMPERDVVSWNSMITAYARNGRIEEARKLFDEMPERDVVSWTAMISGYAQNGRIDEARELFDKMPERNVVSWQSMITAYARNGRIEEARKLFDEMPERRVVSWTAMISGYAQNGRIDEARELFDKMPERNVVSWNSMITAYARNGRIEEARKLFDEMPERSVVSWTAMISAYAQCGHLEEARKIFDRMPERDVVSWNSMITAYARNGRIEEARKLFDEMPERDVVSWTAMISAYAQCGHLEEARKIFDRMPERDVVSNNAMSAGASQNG

T3: GFP-9S library array, motif 4 ND N98F;D124H (synthetic construct, N98F;D124H)
T3 chain: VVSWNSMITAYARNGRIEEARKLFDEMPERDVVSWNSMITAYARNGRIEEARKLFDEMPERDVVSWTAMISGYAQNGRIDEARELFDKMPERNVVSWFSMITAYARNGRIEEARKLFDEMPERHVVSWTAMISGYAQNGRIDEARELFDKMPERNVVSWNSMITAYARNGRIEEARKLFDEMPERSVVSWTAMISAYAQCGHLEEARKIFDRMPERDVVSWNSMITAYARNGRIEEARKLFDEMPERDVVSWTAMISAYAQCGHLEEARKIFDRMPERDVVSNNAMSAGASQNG

T4: GFP-9S library array, motif 4 ND N98S;D124W (synthetic construct, N98S;D124W)
T4 chain: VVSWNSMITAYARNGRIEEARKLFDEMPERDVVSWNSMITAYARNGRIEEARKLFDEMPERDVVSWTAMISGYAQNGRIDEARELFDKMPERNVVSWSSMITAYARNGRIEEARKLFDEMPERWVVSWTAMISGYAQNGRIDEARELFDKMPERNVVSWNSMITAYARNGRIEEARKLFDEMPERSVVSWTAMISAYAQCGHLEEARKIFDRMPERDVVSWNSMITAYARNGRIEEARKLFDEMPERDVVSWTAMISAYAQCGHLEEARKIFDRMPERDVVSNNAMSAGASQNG

T5: GFP-9S library array, motif 4 ND N98Y;D124Q (synthetic construct, N98Y;D124Q)
T5 chain: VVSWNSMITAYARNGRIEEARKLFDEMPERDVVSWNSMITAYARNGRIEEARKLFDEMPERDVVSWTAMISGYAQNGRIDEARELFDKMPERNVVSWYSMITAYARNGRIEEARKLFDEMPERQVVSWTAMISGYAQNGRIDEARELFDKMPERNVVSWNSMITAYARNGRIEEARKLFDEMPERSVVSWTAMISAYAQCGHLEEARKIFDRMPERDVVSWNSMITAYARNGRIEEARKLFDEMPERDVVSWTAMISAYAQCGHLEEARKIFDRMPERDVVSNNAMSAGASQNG


What was measured:
Test in all cases: high-throughput RNA pulldown from lysate on Ni-NTA beads; HRP: 50 mM Tris pH 8, 150 mM NaCl, 1 mM beta-mercaptoethanol, 50 ug/ml BSA, 3 ug/ml yeast RNA, 0.5% heparin; ITC and FP: Tris pH 8, 200 mM KCl, 5% glycerol; MST: 50 mM Tris pH 8, 200 mM NaCl, 1 mM DTT, BSA, heparin, 0.05% Tween 20
Conditions in all cases: tags: N-terminal His-eGFP
[1] = target: T1, GFP-9S library array, motif 4 ND …
[2] = target: T2, GFP-9S library array, motif 4 ND …
[3] = target: T3, GFP-9S library array, motif 4 ND …
[4] = target: T4, GFP-9S library array, motif 4 ND …
[5] = target: T5, GFP-9S library array, motif 4 ND …

Binder | Kd ([1]; label: 5' IRDye 800CW) | Kd ([2]; label: 5' IRDye 800CW) | Kd ([3]; label: 5' IRDye 800CW) | Kd ([4]; label: 5' IRDye 800CW) | Kd ([5]; label: 5' IRDye 800CW) | Kd ([1]; label: 5' Cy5) | Kd ([2]; label: 5' Cy5) | Kd ([3]; label: 5' Cy5) | Kd ([4]; label: 5' Cy5) | Kd ([5]; label: 5' Cy5)
AUUAAACGUGA (ssRNA) [IR-rpoA-A] | 218 nM | 201 nM | 188 nM | 218 nM | 162 nM | – | – | – | – | –
AUUACACGUGA (ssRNA) [Cy5-rpoA] | – | – | – | – | – | 138 nM | 95.2 nM | 73.4 nM | 90.7 nM | 39.5 nM
AUUAGACGUGA (ssRNA) [Cy5-rpoA-G] | – | – | – | – | – | 115 nM | 77.7 nM | 84.9 nM | 126 nM | 49.8 nM
AUUAUACGUGA (ssRNA) [IR-rpoA-U] | 320 nM | 138 nM | 138 nM | 156 nM | 103 nM | – | – | – | – | –
